The source of these data is PMC12343972 (Nature Communications, 2025).

Numbering of substitutions follows the chain as printed.

One data set has as its target T1, Rad50-R131A (Saccharomyces cerevisiae, UniProt P12753 1-1312, R131A).
T1 sequence: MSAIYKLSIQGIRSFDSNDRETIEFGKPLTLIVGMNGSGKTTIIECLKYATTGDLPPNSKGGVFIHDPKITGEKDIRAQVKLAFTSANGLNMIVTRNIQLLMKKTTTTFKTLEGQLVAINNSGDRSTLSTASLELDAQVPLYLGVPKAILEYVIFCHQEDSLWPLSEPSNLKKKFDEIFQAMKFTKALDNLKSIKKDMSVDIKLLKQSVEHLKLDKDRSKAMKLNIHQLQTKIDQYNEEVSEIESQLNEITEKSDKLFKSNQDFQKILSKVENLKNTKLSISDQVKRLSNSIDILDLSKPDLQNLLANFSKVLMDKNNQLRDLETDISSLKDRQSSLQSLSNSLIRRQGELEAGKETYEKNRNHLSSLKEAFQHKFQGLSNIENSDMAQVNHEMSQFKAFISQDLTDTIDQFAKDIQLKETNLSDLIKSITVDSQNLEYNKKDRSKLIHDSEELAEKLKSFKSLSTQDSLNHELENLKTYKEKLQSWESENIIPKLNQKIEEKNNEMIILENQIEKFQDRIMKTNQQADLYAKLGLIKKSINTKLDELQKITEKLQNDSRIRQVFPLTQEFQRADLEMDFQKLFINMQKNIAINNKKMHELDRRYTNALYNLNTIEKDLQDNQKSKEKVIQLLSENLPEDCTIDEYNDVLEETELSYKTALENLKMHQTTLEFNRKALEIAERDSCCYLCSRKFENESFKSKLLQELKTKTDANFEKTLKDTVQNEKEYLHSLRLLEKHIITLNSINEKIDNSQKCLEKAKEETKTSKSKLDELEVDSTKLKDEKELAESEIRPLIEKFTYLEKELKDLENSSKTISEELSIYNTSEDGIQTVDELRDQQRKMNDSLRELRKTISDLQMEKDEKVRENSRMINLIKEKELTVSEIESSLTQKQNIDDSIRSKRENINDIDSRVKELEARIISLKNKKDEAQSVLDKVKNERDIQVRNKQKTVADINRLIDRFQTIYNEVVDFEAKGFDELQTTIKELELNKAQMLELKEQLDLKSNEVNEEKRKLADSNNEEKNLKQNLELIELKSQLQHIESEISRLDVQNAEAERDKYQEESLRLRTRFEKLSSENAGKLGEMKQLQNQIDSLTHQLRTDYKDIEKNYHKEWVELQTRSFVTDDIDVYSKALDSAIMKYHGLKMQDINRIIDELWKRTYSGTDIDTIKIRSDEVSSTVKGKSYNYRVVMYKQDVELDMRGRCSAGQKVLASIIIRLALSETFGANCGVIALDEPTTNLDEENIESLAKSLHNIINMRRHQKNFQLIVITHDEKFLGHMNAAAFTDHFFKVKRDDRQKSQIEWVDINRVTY
Kind of data set: EMSA. In general terms: In EMSA bound probe runs differently from free probe, usually more slowly.

A further data set deals with T2, Rad50-3KA (Saccharomyces cerevisiae, UniProt P12753 1-1312, K192A;K195A;K196A).
T2 sequence: T1 sequence with A131R, K192A, K195A, K196A
The experiment in a line: EMSA.

B1: 83-mer dsDNA (EMSA) (dsDNA)
DNA 1: TTGATAAGAGGTCATTTTTGCGGATGGCTTAGAGCTTAATTGCTGAATCTGGTGCTGTAGCTCAACATGTTTTAAATATGCAA
DNA 2: TTGCATATTTAAAACATGTTGAGCTACAGCACCAGATTCAGCAATTAAGCTCTAAGCCATCCGCAAAAATGACCTCTTATCAA
In the case of B1, the binding result in the data set with Rad50-R131A and with Rad50-3KA was “binds” throughout.
